Test results published in article PMC3882083 (Nature methods, 2013).

What was measured:
3XFLAG-CDK4 R24C = 3XFLAG-CDK4 R24C (human, UniProt P11802 1-303, R24C); assay: affinity purification with mass spectrometry
3XFLAG-CDK4 R24H = 3XFLAG-CDK4 R24H (human, UniProt P11802 1-303, R24H); assay: affinity purification with mass spectrometry
Chain of 3XFLAG-CDK4 R24H (P11802 whole entry R24H): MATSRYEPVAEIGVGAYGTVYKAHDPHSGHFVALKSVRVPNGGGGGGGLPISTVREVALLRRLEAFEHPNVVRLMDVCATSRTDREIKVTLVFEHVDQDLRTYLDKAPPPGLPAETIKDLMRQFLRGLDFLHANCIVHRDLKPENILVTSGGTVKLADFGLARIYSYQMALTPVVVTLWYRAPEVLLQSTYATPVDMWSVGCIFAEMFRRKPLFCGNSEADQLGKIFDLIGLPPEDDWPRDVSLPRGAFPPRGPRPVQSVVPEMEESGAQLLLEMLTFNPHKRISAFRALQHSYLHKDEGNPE

Chain of 3XFLAG-CDK4 R24C (P11802 whole entry R24C): as the sequence (P11802 whole entry R24H) above, with H24C counted along it

Binder	fold increase against CDK4 WT (3XFLAG-CDK4 R24C) [fold]	fold increase against CDK4 WT (3XFLAG-CDK4 R24H) [fold]
HSP90AB1 (natural protein) not shown	≥ 3	≥ 3
CDC37 co-chaperone (natural protein) MVDYSVWDHIEVSDDEDETHPNIDTASLFRWRHQARVERMEQFQKEKEELDRGCRECKRKVAECQRKLKELEVAEGGKAELERLQAEAQQLRKEERSWEQKLEEMRKKEKSMPWNVDTLSKDGFSKSMVNTKPEKTEEDSEEVREQKHKTFVEKYEKQIKHFGMLRRWDDSQKYLSDNVHLVCEETANYLVIWCIDLEVEEKCALMEQVAHQTIVMQFILELAKSLKVDPRACFRQFFTKIKTADRQYMEGFNDELEAFKERVRGRAKLRIEKAMKEYEEEERKKRLGPGGLDPVEVYESLPEELQKCFDVKDVQMLQDAISKMDPTDAKYHMQRCIDSGLWVPNSKASEAKEGEEAGPGDPLLEAVPKTGDEKDVSV	≥ 3.9	≥ 3.9
